# Results published in the nanobody polyreactivity screen of Harvey et al. (2022).
# Assay: yeast display, Sf9 membrane polyspecificity reagent, FACS + sequencing; frameworks hold sequencing errors
# In short: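 Galactose induction of a Saccharomyces cerevisiae BJ5465 synthetic nanobody display library ran 36–48 hours. The cells were then stained for 1 hour at 4 °C with 10% biotinylated, detergent-solubilized Sf9 membrane reagent, pulled down on streptavidin microbeads and FACS-sorted into low and high (top ~1%) gates on expression and reagent-binding fluorescence. Labels for polyreactivity follow the gate of origin.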
row,Sequence,polyreactivity (PSR sort gate)
1,QVQLVESGGGLVQAGGSLRLSCAASGSIFPDNTMGWYRQSPGKDRELVGAIDGRGGTTYYADSVKGSFTISRDNAKNTVYLQMNSLKPEDTAVYYCARDIGHSASYDYWGQGTQVTVSS,low polyreactivity
2,QVQLVESGGGLVQAGGSLRLSCAASGSIFPDYALGWYRQPPGKERELVAAITWRDDSTYYADSVKGRFTSSRDKAKNTVYLQMNSLKPEETAVYYCNASAMDPLYAKDDYWGQGTQVTVSS,low polyreactivity
3,QVQLVESGGGLVQAGGSLRLSCAASGSIFPDYAMGWYRTAPGKERELVAAISWDGGRTYYADSVKGRFTISRDNAKNTVYLQMNSLKPEDTAVYYCYWYDYWGQGTQVTVSS,high polyreactivity
4,QVQLVESGGGLVQAGGSLRLSCAASGSIFPDYGMGWYRQAPGKEREFVAAIDWSGTSTYYADSVKGRFTISRDNAKNTVYLQMNSLKPEDTAVYYCAARWDKSPFKLYDSWGQGTQVTVSS,low polyreactivity
5,QVQLVESGGGLVQAGGSLRLSCAASGSIFPEYAMGWYRQAPGKERELVAAITTSGGSTYYADSVKGRFTISRDNAKNTVYLQMNSLKPEDTAVYYCAVEYLVYLDYTYDYWGQGTQVTVSS,low polyreactivity
6,QVQLVESGGGLVQAGGSLRLSCAASGSIFPFNAMGWYRPAPGKERELVAAITSGGSTNYADSVKGRFTISRDNAKNTVYFQMNSLKPEDTAVYYCAADWRYWRWAFDYWGQGTQVTVSS,high polyreactivity
7,QVQLVESGGGLVQAGGSLRLSCAASGSIFPFNAMGWYRPAPGKERELVAAITSGGSTNYADSVKGRFTISRDNAKNTVYLQMNSLKPEDTADYYCAADWRYWRWAFDYWGQGTQVTVSS,high polyreactivity
8,QVQLVESGGGLVQAGGSLRLSCAASGSIFPFNAMGWYRQAPGKERELVAAISVNGGTTYYADSVKGRFTISRDNAKNTVYLQMNSLKPEDTAVYYCNARRAYLYYVSYRYGYWGQGTQVTVSS,low polyreactivity
9,QVQLVESGGGLVQAGGSLRLSCAASGSIFPFNAMGWYRQAPGKERELVAAITRSGGSTYYADSVKGRFTISRDNAKNTVYLQMNSLKPEDTAVYYCANDPEWPLPDFYYWGQGTQVTVSS,low polyreactivity
10,QVQLVESGGGLVQAGGSLRLSCAASGSIFPGNAMGWYRQAPGKERELVAAIDFSGGSTYYADSVKGRFTISRDNAKNTVYLQMNSLKPEDTAVYYCAASVYPYYGYGYWGQGTQVTVSS,low polyreactivity
11,QVQLVESGGGLVQAGGSLRLSCAASGSIFPGNAMGWYRQAPGKERELVASINWSGGSTYYADSVKGRFTISRDNANNTVYLQMNSLKPEDTAVYYCNADPGYYDYDYWGQGTQVTVSS,low polyreactivity
12,QVQLVESGGGLVQAGGSLRLSCAASGSIFPGYAMGWYRPAPGKERELVAAITDSGVSTYYADSVKGRFTISRDNAKNTVYLQMNSLKPEDTAVYYCARDNWQWYPSTWYDYWGQGTQVTVSS,high polyreactivity
13,QVQLVESGGGLVQAGGSLRLSCAASGSIFPGYPMGWYRQAPGKERELVAAISRSGGITYYADSVKGRFTISRDNAKNTVYLQMNSLKPEDTAVYYCAKTLPSNGHYDYWGQGTQVTVSS,low polyreactivity
14,QVQLVESGGGLVQAGGSLRLSCAASGSIFPGYTMGWYRQAPGKERELVAAISWSDGSTYYADSVKGRFTISRDNAKNTVYLQMNSLKPDDTAVYYCNRDYRGPYYYWGQGTQVTVSS,high polyreactivity
15,QVQLVESGGGLVQAGGSLRLSCAASGSIFPHNAMGWYRPAPGKERELVAAISSGGSTNYADSVKGRFTISRDNANNTVYLQLNSLKPEDTAVYYCAKSIDGWYWRRRRYDYWGQGTQVTVSS,low polyreactivity
16,QVQLVESGGGLVQAGGSLRLSCAASGSIFPHNAMGWYRQAPGKERELVAAITTIGGSTYYADSVKGRFTISRDNAKNTVYLQRNSLKPEDTAVYYCAADCATVLGFYTYDYWGQGTQVTVSS,low polyreactivity
17,QVQLVESGGGLVQAGGSLRLSCAASGSIFPHYAMGWSRQAPGKERELVSAISSGGRTYYADSVKGRFTISRDNAKNTVYLQMNSLKPEDTAVYYCAARRIARKGYGYWGQGTQVTVSS,high polyreactivity
18,QVQLVESGGGLVQAGGSLRLSCAASGSIFPHYAMGWYRQSPGKETELVAAISRSGTSTYYADSVKGRFTISRDNAKNTVYLQMNSLKPEDTAVYYCAALSNNGVRYYYWGQGTQVTVSS,high polyreactivity
19,QVQLVESGGGLVQAGGSLRLSCAASGSIFPKYAMGWYRQAPGKERELVAAISRGGGSTYYADSVKGRFTISRDNAKYTVYLQMNSLKPEDTAVYYCAAQYYSLQWEYYYWGQGTQVTVSS,high polyreactivity
20,QVQLVESGGGLVQAGGSLRLSCAASGSIFPLYAMGWYRQAPGKERELVADITVSGGSTYNADSVKGRFTISRDNAKNTVYLQMNSLKPEDTAVYYCNADDRSPFPDYWWYPYDYDYWGQGTQVTVSS,low polyreactivity
21,QVQLVESGGGLVQAGGSLRLSCAASGSIFPLYDMGWYRPAPGKERELVAGISSGGSTNYADSVKGRFTISRDNAKNTVYLQMNSLKPEDTAVYYCAATGSSRYGYWGQGTQVTVSS,low polyreactivity
22,QVQLVESGGGLVQAGGSLRLSCAASGSIFPNNDMGWYRQAPGKERELVAAITTRGTSTYYADSVKGRFTISRDNAKNTVYLQMNSLKPEDTAVYYCAVGRRGDSAGGVAYYYWGQGTQVTVSS,low polyreactivity
23,QVQLVESGGGLVQAGGSLRLSCAASGSIFPPNAMAWYRQAPGKEREFVAAITESGGSTRYADSVKGRFTISRDNAKNTVYLQMNSLKPEDTAVYYCAARSYRYSTHGTYRYYYWGQGTQVTVSS,high polyreactivity
24,QVQLVESGGGLVQAGGSLRLSCAASGSIFPPNAMGWYRQAPGKERELVAAISRRGGSTYYADSVKGRFTISRDNAKNTVYLQMNSLKPEDTAVYYCAARGGQMEYWGQGTQVTVSS,high polyreactivity
25,QVQLVESGGGLVQAGGSLRLSCAASGSIFPPYAIGSYRQAPGKERELVATITIRGGSTYYADSVKGRFTISRDNAKNTVYLQMNSLKPEDTAVYYCAADYTKYYRRYYYWGQGTQVTVSS,high polyreactivity
26,QVQLVESGGGLVQAGGSLRLSCAASGSIFPQYAIGWYRQAPGKERELVAAITRSGGGTHYADSVKGRFTISRDNAKNTVYLQMNSLKPEDTAVYYCAKAGYRSEFEYWGQGTQVTVSS,low polyreactivity
27,QVQLVESGGGLVQAGGSLRLSCAASGSIFPRNAMGWYRQAPGKERELVAAIRKSGGSTYYADSVKGRFTISRDNAKNTVYLQMNSLKPEDTAVYYCAKTYSVSSWQSPIYNYWGQGTQVTVSS,low polyreactivity
28,QVQLVESGGGLVQAGGSLRLSCAASGSIFPRNAMGWYRQAPGKERELVAAITTTGGITHYADSVKGRFTISRDNAKNTVYLLMNSLKPEDTAVYYCNASYEYNAGRVETEYDYWGQGTKVTVSS,low polyreactivity
29,QVQLVESGGGLVQAGGSLRLSCAASGSIFPRNAMGWYRQAPGKERELVAAITTTGGITHYADSVKGRFTISRDNAKNTVYLQMNSLKPEDTAVYYCNASYEYNAGRVETEYDYWGQGTQVTVSS,low polyreactivity
30,QVQLVESGGGLVQAGGSLRLSCAASGSIFPSNAMGWYRQAPGKERELVAAINRDGITNYADSVKGRFTISRDNAKNTVYLQMNSLKPEDTAVYYCNAYNYDFYASFWYEVDYWGLGTQVTVSS,low polyreactivity
